From the supplement of paper PMC11865577

Experiments:
Test in all cases: pull-down binding Z-score (relative to library population); higher = stronger binding
[1] = tested on: TO-3-N3-2 (biotin conjugate); conditions: RNA library: Library-2
Summary of the method: (§1)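 Streptavidin beads with 100 pmol of biotin-conjugated small molecule were incubated for 60 min at 25 °C with 1 μg of heat-folded Cy5- or Cy3-end-labelled RNA library in phosphate/NaCl/KCl buffer. Bound RNA was eluted in hot SDS after three washes and hybridised to a DNA barcode microarray at 55.5 °C for 20 h. Each binding score is a library-referenced Z-score, computed after beads-only subtraction and a trimmed mean of barcoded replicate probes.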

[2] = tested on: TO-N3-2 (biotin conjugate); conditions: RNA library: Library-2
Summary of the method: as §1

[3] = tested on: TO-3-N3 (biotin conjugate); conditions: RNA library: Library-2
Summary of the method: as §1

[4] = tested on: G-clamp-N3 (biotin conjugate); conditions: RNA library: Library-1 (pre-miRNA loops + repeats)
Summary of the method: as §1

[5] = tested on: TO-N3 (biotin conjugate); conditions: RNA library: Library-2
Summary of the method: as §1

## AAUUUUGAUGAGUAUCAUAGGAGAAAAAUU [hsa-mir-363]
[1]
  pull-down binding Z-score: 0.27
[2]
  pull-down binding Z-score: 0.542
[3]
  pull-down binding Z-score: -0.302
[4]
  pull-down binding Z-score: 1.49
[5]
  pull-down binding Z-score: -0.184

## AAUUUUUUUUUAAUUUAAAAAAUU [hsa-mir-3938]
[1]
  pull-down binding Z-score: 0.127
[2]
  pull-down binding Z-score: -1.36
[3]
  pull-down binding Z-score: -0.808
[4]
  pull-down binding Z-score: 0.843
[5]
  pull-down binding Z-score: -1.13

## ACAAUAUGCUAUUAUAAUCGUAUGGCAUUGU [hsa-mir-2355]
[1]
  pull-down binding Z-score: -0.546
[2]
  pull-down binding Z-score: -0.994
[3]
  pull-down binding Z-score: -0.919
[4]
  pull-down binding Z-score: 0.228
[5]
  pull-down binding Z-score: -1.18

## ACAAUUAUGAAAGAAAAGAAAUUGU [hsa-mir-3611]
[1]
  pull-down binding Z-score: 0.327
[2]
  pull-down binding Z-score: -0.566
[3]
  pull-down binding Z-score: -0.386
[4]
  pull-down binding Z-score: 0.163
[5]
  pull-down binding Z-score: -0.636

## ACACACACCAGACUAUGGAAGCCAGUGU [hsa-mir-147a]
[1]
  pull-down binding Z-score: -0.471
[2]
  pull-down binding Z-score: 0.0135
[3]
  pull-down binding Z-score: -0.455
[4]
  pull-down binding Z-score: -0.656
[5]
  pull-down binding Z-score: -0.528

## ACACCUGUAAAGAAUUGGUCAGCCUGGGGACUGGUGAUCUCUGCAGCUGU [hsa-mir-4265]
[1]
  pull-down binding Z-score: 0.475
[2]
  pull-down binding Z-score: 1.42
[3]
  pull-down binding Z-score: 1.15
[4]
  pull-down binding Z-score: -0.15
[5]
  pull-down binding Z-score: 1.39

## ACACUGCGCUGCCCCAGACCCACUGU [hsa-mir-210]
[1]
  pull-down binding Z-score: 0.103
[2]
  pull-down binding Z-score: 0.683
[3]
  pull-down binding Z-score: 0.364
[4]
  pull-down binding Z-score: -1.18
[5]
  pull-down binding Z-score: 0.83

## ACACUGGGCUGCCCCCACUGCCCAGUGC [hsa-mir-4277]
[1]
  pull-down binding Z-score: -0.357
[2]
  pull-down binding Z-score: 0.413
[3]
  pull-down binding Z-score: 0.676
[4]
  pull-down binding Z-score: -0.963
[5]
  pull-down binding Z-score: 0.594

## ACACUUCCUAUAUGUAUCCACAUAUAUAUAGU [hsa-mir-568]
[1]
  pull-down binding Z-score: -0.0673
[2]
  pull-down binding Z-score: -0.936
[3]
  pull-down binding Z-score: -0.562
[4]
  pull-down binding Z-score: 0.00925
[5]
  pull-down binding Z-score: -0.69

## ACAGAGUGAGAUGGUCUUGUUUUGU [hsa-mir-5684]
[1]
  pull-down binding Z-score: -0.409
[2]
  pull-down binding Z-score: -0.546
[3]
  pull-down binding Z-score: -0.542
[4]
  pull-down binding Z-score: 0.00683
[5]
  pull-down binding Z-score: -0.673

## ACAGCAGUCUUACUGAAGGUUUCCUGGAAACCACGCACAUGCUGU [hsa-mir-744]
[1]
  pull-down binding Z-score: -0.233
[2]
  pull-down binding Z-score: -0.5
[3]
  pull-down binding Z-score: -0.304
[4]
  pull-down binding Z-score: -0.613
[5]
  pull-down binding Z-score: -0.165

## ACAGCCAGUGCUCUCGUCUCCCCUCUGGCUGC [hsa-mir-192]
[1]
  pull-down binding Z-score: 0.236
[2]
  pull-down binding Z-score: 0.949
[3]
  pull-down binding Z-score: 0.839
[4]
  pull-down binding Z-score: 0.589
[5]
  pull-down binding Z-score: 0.925

## ACAGCGCCACGGAAGAGGACGCA [hsa-mir-941-4_941-5_941-2_941-3_941-1]
[1]
  pull-down binding Z-score: -0.211
[2]
  pull-down binding Z-score: 0.874
[3]
  pull-down binding Z-score: 0.0968
[4]
  pull-down binding Z-score: -0.758
[5]
  pull-down binding Z-score: 0.495

## ACAGGUAGUGGCCACAGUGAGAAAGCUGGCCUGUCCUUCUGC [hsa-mir-4314]
[1]
  pull-down binding Z-score: 0.0324
[2]
  pull-down binding Z-score: 0.681
[3]
  pull-down binding Z-score: -0.00864
[4]
  pull-down binding Z-score: -0.00957
[5]
  pull-down binding Z-score: 0.245

## ACAGUGGACUUGGUGACGCUGU [hsa-mir-675]
[1]
  pull-down binding Z-score: -0.252
[2]
  pull-down binding Z-score: -0.259
[3]
  pull-down binding Z-score: -0.46
[4]
  pull-down binding Z-score: 1.67
[5]
  pull-down binding Z-score: -0.456

## ACAGUGGCCACAUCUCCAC [hsa-mir-1184-3_1184-2_1184-1]
[1]
  pull-down binding Z-score: 0.472
[2]
  pull-down binding Z-score: 0.582
[3]
  pull-down binding Z-score: 1.11
[4]
  pull-down binding Z-score: -1.28
[5]
  pull-down binding Z-score: 1.17

## ACAGUUUGAGGGUCUAUGAUACCACCCGGUACAGGAGAUAACUGU [hsa-let-7g]
[1]
  pull-down binding Z-score: -0.136
[2]
  pull-down binding Z-score: 0.988
[3]
  pull-down binding Z-score: -0.508
[4]
  pull-down binding Z-score: 0.817
[5]
  pull-down binding Z-score: -0.0397

## ACAUGAAAAUAAAAUGUAAAUUAUUUUAUUUCUAUCA [hsa-mir-3671]
[1]
  pull-down binding Z-score: 0.294
[2]
  pull-down binding Z-score: -0.163
[3]
  pull-down binding Z-score: 0.665
[4]
  pull-down binding Z-score: -0.346
[5]
  pull-down binding Z-score: 0.652

## ACAUGCAGUAUUUGG [hsa-mir-1302-8]
[1]
  pull-down binding Z-score: -0.047
[2]
  pull-down binding Z-score: -0.0326
[3]
  pull-down binding Z-score: -0.326
[4]
  pull-down binding Z-score: 0.976
[5]
  pull-down binding Z-score: -0.242

## ACAUUUGCAACCUGUGAAGAUGCAAAACUUUAAGUGU [hsa-mir-2053]
[1]
  pull-down binding Z-score: -0.262
[2]
  pull-down binding Z-score: -0.701
[3]
  pull-down binding Z-score: -0.699
[4]
  pull-down binding Z-score: -0.673
[5]
  pull-down binding Z-score: -0.853

## ACCAAAAAUGAUAUGGGU [hsa-mir-7977]
[1]
  pull-down binding Z-score: 0.11
[2]
  pull-down binding Z-score: -0.381
[3]
  pull-down binding Z-score: -0.344
[4]
  pull-down binding Z-score: 1.5
[5]
  pull-down binding Z-score: -0.532

## ACCAAAACACUCAUCGCGG [hsa-mir-1260a]
[1]
  pull-down binding Z-score: 0.105
[2]
  pull-down binding Z-score: -0.00378
[3]
  pull-down binding Z-score: -0.138
[4]
  pull-down binding Z-score: -0.734
[5]
  pull-down binding Z-score: -0.188

## ACCACCCAGGCCUUAUGGCUUCAUA [hsa-mir-7974]
[1]
  pull-down binding Z-score: -0.0756
[2]
  pull-down binding Z-score: 0.0927
[3]
  pull-down binding Z-score: -0.102
[4]
  pull-down binding Z-score: -1.68
[5]
  pull-down binding Z-score: 0.233

## ACCACUGUGAAGACAGUAAAAUGUACAGUGGU [hsa-mir-597]
[1]
  pull-down binding Z-score: -0.0901
[2]
  pull-down binding Z-score: -1.1
[3]
  pull-down binding Z-score: -0.324
[4]
  pull-down binding Z-score: 0.0112
[5]
  pull-down binding Z-score: -0.598

## ACCAUAGUCAUAAGUUAGGAGAUGUUAGAGCUGUGAGU [hsa-mir-4286]
[1]
  pull-down binding Z-score: 0.296
[2]
  pull-down binding Z-score: 0.807
[3]
  pull-down binding Z-score: -0.464
[4]
  pull-down binding Z-score: 0.233
[5]
  pull-down binding Z-score: -0.108

## ACCAUAUCUAAGCUAAUGUGGUGGU [hsa-mir-876]
[1]
  pull-down binding Z-score: 0.00992
[2]
  pull-down binding Z-score: -0.259
[3]
  pull-down binding Z-score: -0.157
[4]
  pull-down binding Z-score: 0.651
[5]
  pull-down binding Z-score: -0.139

## ACCCAGGACUCUUUCAUGACCA [hsa-mir-665]
[1]
  pull-down binding Z-score: 0.144
[2]
  pull-down binding Z-score: 0.384
[3]
  pull-down binding Z-score: -0.0474
[4]
  pull-down binding Z-score: -0.54
[5]
  pull-down binding Z-score: 0.101

## ACCCGGGUGGUGGAGGUUGCAGUGAGCCAAGAUUGCGCCACUGCACUCCAGCCUGGGC [hsa-mir-1273a]
[1]
  pull-down binding Z-score: 0.442
[2]
  pull-down binding Z-score: 1.66
[3]
  pull-down binding Z-score: 1.06
[4]
  pull-down binding Z-score: -0.139
[5]
  pull-down binding Z-score: 1.94

## ACCCUGCAGCCCCAGCUGGAGGAUGAGGAGAUGCUGGGCUUGGGU [hsa-mir-4313]
[1]
  pull-down binding Z-score: 1.45
[2]
  pull-down binding Z-score: 2.93
[3]
  pull-down binding Z-score: 0.794
[4]
  pull-down binding Z-score: 1.16
[5]
  pull-down binding Z-score: 1.73

## ACCUAACACACUGCCUUUUAUGUGGUAGGU [hsa-mir-5094]
[1]
  pull-down binding Z-score: -0.66
[2]
  pull-down binding Z-score: -1.14
[3]
  pull-down binding Z-score: -0.678
[4]
  pull-down binding Z-score: -1.19
[5]
  pull-down binding Z-score: -1.02

## ACCUCCUGGCUUUUCCUCUGCAGCAUGGCUCGGACCUAGUGCAAUGUUUAAGCU [hsa-mir-6826]
[1]
  pull-down binding Z-score: 0.506
[2]
  pull-down binding Z-score: 0.769
[3]
  pull-down binding Z-score: 0.104
[4]
  pull-down binding Z-score: -0.435
[5]
  pull-down binding Z-score: 0.659

## ACCUGUGUGUGCCCAAGUGUUUCUAGCAAACACAGGG [hsa-mir-3649]
[1]
  pull-down binding Z-score: 0.425
[2]
  pull-down binding Z-score: 0.193
[3]
  pull-down binding Z-score: 0.76
[4]
  pull-down binding Z-score: 0.215
[5]
  pull-down binding Z-score: 0.757

## ACCUUCCAAGGCUCAGAAGGU [hsa-mir-4650-1_4650-2]
[1]
  pull-down binding Z-score: -0.432
[2]
  pull-down binding Z-score: -0.0713
[3]
  pull-down binding Z-score: -0.702
[4]
  pull-down binding Z-score: -0.155
[5]
  pull-down binding Z-score: -0.702

## ACGAGAGUGAGUAGCAGGUCUC [hsa-mir-128-2]
[1]
  pull-down binding Z-score: 0.361
[2]
  pull-down binding Z-score: 1.51
[3]
  pull-down binding Z-score: -0.117
[4]
  pull-down binding Z-score: 2.31
[5]
  pull-down binding Z-score: 0.627

## ACGAUAUAGGUAUGUAUGUAUGUAUGUAUAAAAGCAGGGCAGUAUAUAUAUCGU [hsa-mir-4536-2]
[1]
  pull-down binding Z-score: 0.723
[2]
  pull-down binding Z-score: 0.482
[3]
  pull-down binding Z-score: 0.847
[4]
  pull-down binding Z-score: 1.53
[5]
  pull-down binding Z-score: 0.862

## ACGAUAUAUAUACUGCCCUGCUUUUAUACAUACAUACAUACAUACCUAUAUCGU [hsa-mir-4536-1]
[1]
  pull-down binding Z-score: -0.00614
[2]
  pull-down binding Z-score: -0.809
[3]
  pull-down binding Z-score: -0.603
[4]
  pull-down binding Z-score: -0.956
[5]
  pull-down binding Z-score: -0.734
